Common to all, as to assay: cell_activity
The target in data set [1] is CD38 TALEN Right (synthetic construct) (UniProt Q56830). Conditions: CD38-negative T cells, paired with CD38 left, simultaneous electroporation.
The target in data set [2] is TRAC TALEN Left (synthetic construct) (UniProt Q56830). Conditions: TCR-negative T cells, paired with TRAC right, simultaneous electroporation with CD38 and CD52 TALEN.
Data set [3] addresses CD52 TALEN Right (synthetic construct) (UniProt Q56830). The following applies: CD52-negative T cells, paired with CD52 left, simultaneous electroporation.
Data set [4] addresses TRAC TALEN Right (synthetic construct) (UniProt Q56830). The following applies: TCR-negative T cells, paired with TRAC left, simultaneous electroporation.
Data set [5] addresses CD38 TALEN Left (synthetic construct) (UniProt Q56830). The following applies: CD38-negative T cells, paired with CD38 right, simultaneous electroporation.
Data set [6] relates to CD52 TALEN Left (synthetic construct). The following applies: CD52-negative T cells, paired with CD52 right, simultaneous electroporation.

CD38 right half-site: in data set [1], the activity was determined as 66.1%.

For TRAC left half-site, the activity in data set [2] turned out to be 67.8%.

As to CD52 right half-site, the activity in data set [3] amounted to 57%.

In the case of TRAC right half-site, the activity in data set [4] was 67.8%.

CD38 left half-site registered an activity in data set [5] of 66.1%.

In data set [6], CD52 left half-site yielded an activity of 57%.
